# Measured values as given in the supplement of paper PMC9112550, “Optimization of the antimicrobial peptide Bac7 by deep mutational scanning” (BMC Biology, 2022).
# Tested on: Escherichia coli TOP10
# Assay: shrunken log2 fold change of peptide-encoding DNA abundance (4.5 h post-induction vs induction); higher = less antimicrobial activity (less host growth inhibition)
# Details: time post-induction: 4.5 h; library: site-saturation at positions 5, 18, 19, 20
# 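Further: peptides expressed intracellularly from a pBAD plasmid library in pooled LB shake-flask culture, induced with 0.3% L-arabinose, DNA abundance read by NGS, three biological replicates, DESeq2 with apeglm shrinkage.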
row,Sequence,shrunken log2 fold change
1,RRIRCRPPRLPRPRPRPMEWPRP,0.0244
2,RRIRLRPPRLPRPRPRPSMWPRP,0.0718
3,RRIRRRPPRLPRPRPRPDFRPRP,0.118
4,RRIRKRPPRLPRPRPRPGQVPRP,0.00902
5,RRIRNRPPRLPRPRPRPNIDPRP,-0.936
6,RRIRSRPPRLPRPRPRPCHTPRP,0.00383
7,RRIRCRPPRLPRPRPRPTGLPRP,0.106
8,RRIRTRPPRLPRPRPRPEFIPRP,0.0102
9,RRIRIRPPRLPRPRPRPQHEPRP,-0.262
10,RRIRNRPPRLPRPRPRPCGYPRP,0.019
11,RRIRMRPPRLPRPRPRPGPVPRP,1.14
12,RRIRLRPPRLPRPRPRPNRRPRP,0.0365
13,RRIRFRPPRLPRPRPRPQQGPRP,-0.0566
14,RRIRGRPPRLPRPRPRPEGAPRP,1.49
15,RRIRMRPPRLPRPRPRPCSTPRP,0.477
16,RRIRYRPPRLPRPRPRPPLFPRP,-0.0411
17,RRIRRRPPRLPRPRPRPHYDPRP,-0.124
18,RRIRCRPPRLPRPRPRPCACPRP,-0.421
19,RRIRLRPPRLPRPRPRPTWDPRP,0.183
20,RRIRGRPPRLPRPRPRPCSFPRP,0.2
21,RRIRPRPPRLPRPRPRPFPNPRP,-0.0765
22,RRIRARPPRLPRPRPRPSWIPRP,-0.0935
23,RRIRNRPPRLPRPRPRPQFFPRP,-0.0257
24,RRIRSRPPRLPRPRPRPDVFPRP,-0.098
25,RRIRIRPPRLPRPRPRPYLAPRP,-0.941

row,Sequence,shrunken log2 fold change
1,RRIRGRPPRLPRPRPRPQKMPRP,0.331
2,RRIRPRPPRLPRPRPRPPPAPRP,2.01
3,RRIRKRPPRLPRPRPRPECCPRP,0.327
4,RRIRDRPPRLPRPRPRPFEFPRP,0.0215
5,RRIRYRPPRLPRPRPRPASKPRP,-1.29e-05
6,RRIRDRPPRLPRPRPRPVKVPRP,-0.0343
7,RRIRYRPPRLPRPRPRPNDLPRP,0.018
8,RRIRERPPRLPRPRPRPEKEPRP,0.0662
9,RRIRIRPPRLPRPRPRPPPFPRP,0.481
10,RRIRCRPPRLPRPRPRPDWFPRP,-0.141
11,RRIRIRPPRLPRPRPRPTWPPRP,0.368
12,RRIRKRPPRLPRPRPRPTHLPRP,0.149
13,RRIRYRPPRLPRPRPRPPKHPRP,-0.165
14,RRIRFRPPRLPRPRPRPHLTPRP,-0.226
15,RRIRLRPPRLPRPRPRPIKCPRP,-0.152
16,RRIRRRPPRLPRPRPRPVGCPRP,0.472
17,RRIRFRPPRLPRPRPRPELRPRP,-0.0629
18,RRIRVRPPRLPRPRPRPTHMPRP,0.0408
19,RRIRARPPRLPRPRPRPHESPRP,0.779
20,RRIRDRPPRLPRPRPRPELRPRP,0.621
21,RRIRNRPPRLPRPRPRPCIAPRP,-0.878
22,RRIRARPPRLPRPRPRPKMSPRP,0.126
23,RRIRMRPPRLPRPRPRPNQTPRP,-0.0789
24,RRIRIRPPRLPRPRPRPNPSPRP,0.0641
25,RRIRMRPPRLPRPRPRPVKCPRP,-0.0525

row,Sequence,shrunken log2 fold change
1,RRIRMRPPRLPRPRPRPFWPPRP,1.3
2,RRIRWRPPRLPRPRPRPHKDPRP,-0.115
3,RRIRCRPPRLPRPRPRPPCKPRP,-0.189
4,RRIRWRPPRLPRPRPRPFWAPRP,0.274
5,RRIRKRPPRLPRPRPRPPCSPRP,0.202
6,RRIRFRPPRLPRPRPRPVWGPRP,0.311
7,RRIRPRPPRLPRPRPRPCNNPRP,-0.177
8,RRIRRRPPRLPRPRPRPLGTPRP,0.547
9,RRIRMRPPRLPRPRPRPLHFPRP,-0.0889
10,RRIRPRPPRLPRPRPRPSVGPRP,-0.295
11,RRIRHRPPRLPRPRPRPVIIPRP,-0.248
12,RRIRKRPPRLPRPRPRPYCPPRP,0.0231
13,RRIRARPPRLPRPRPRPVLGPRP,0.419
14,RRIRMRPPRLPRPRPRPWKGPRP,-0.00192
15,RRIRPRPPRLPRPRPRPGQWPRP,0.236
16,RRIRFRPPRLPRPRPRPEWDPRP,0.168
17,RRIRWRPPRLPRPRPRPRHWPRP,0.0523
18,RRIRCRPPRLPRPRPRPPKQPRP,0.123
19,RRIRYRPPRLPRPRPRPAPMPRP,-0.0449
20,RRIRNRPPRLPRPRPRPGRMPRP,0.0895
21,RRIRPRPPRLPRPRPRPYIKPRP,-0.939
22,RRIRTRPPRLPRPRPRPNDYPRP,-0.523
23,RRIRCRPPRLPRPRPRPQSWPRP,0.69
24,RRIRHRPPRLPRPRPRPFKTPRP,-0.256
25,RRIRMRPPRLPRPRPRPKDHPRP,0.458
